US20240270846A1 (published 2024)

Target: T1, CD3 epsilon homodimer protein (UniProt P07766 23-126)
T1 construct: construct not described; homodimer as printed; also called CD3 (CD3 epsilon)
Experiment: SPR Biacore T200, CD3 epsilon homodimer immobilized; vs unaltered GLS3000;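 note: antibody variants flowed as analyte over CD3 epsilon homodimer amine-coupled to a CM4 chip, at 25 °C in HBS-EP+ running buffer, fitted with Biacore T200 Evaluation Software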

T1 sequence (P07766 23-126): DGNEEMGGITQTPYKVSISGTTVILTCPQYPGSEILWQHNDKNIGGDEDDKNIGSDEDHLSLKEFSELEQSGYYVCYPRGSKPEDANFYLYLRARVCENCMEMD

Binder	KD ratio to GLS3000 (Affinity up)
GLS3000 N28D (Kabat) L chain altered form, one-arm antibody with CE115HA000 (antibody, human IgG1, kappa, L234A L235A, N297A, name in Kabat numbering, one-arm antibody) heavy: QVQLVESGGGVVQPGRSLRLSCAASGFTFSNAWMHWVRQAPGKGLEWVAQIKAKSNNYATYYAESVKGRFTISRDDSKNSLYLQMNSLKTEDTAVYYCRYVHYGAYYGVDAWGQGTTVTVSSASTKGPSVFPLAPSSKSTSGGTAALGCLVKDYFPEPVTVSWNSGALTSGVHTFPAVLQSSGLYSLSSVVTVPSSSLGTQTYICNVNHKPSNTKVDKKVEPKSCDKTHTCPPCPAPEAAGGPSVFLFPPKPKDTLMISRTPEVTCVVVDVSHEDPEVKFNWYVDGVEVHNAKTKPREEQYASTYRVVSVLTVLHQDWLNGKEYKCKVSNKALPAPIEKTISKAKGQPREPQVYTLPPSRCELTKNQVSLSCAVKGFYPSDIAVEWESNGQPENNYKTTPPVLDSDGSFFLVSKLTVDKSRWQQGNVFSCSVMHEALHNHYTQKSLSLSPDYKDDDDK EPKSSDKTHTCPPCPAPELLGGPSVFLFPPKPKDTLMISRTPEVTCVVVDVSHEDPEVKFNWYVDGVEVHNAKTKPREEQYNSTYRVVSVLTVLHQDWLNGKEYKCKVSNKALPAPIEKTISKAKGQPREPQVCTLPPSRDELTKNQVSLWCLVKGFYPSDIAVEWESNGQPENNYKTTPPVLDSDGSFFLYSKLTVDKSRWQQGNVFSCSVMHEALHNRYTQKSLSLSP light: DIVMTQSPLSLPVTPGEPASISCRSSQSLVHSDRNTYLHWYQQKPGQAPRLLIYKVSNRFSGVPDRFSGSGSGTDFTLKISRVEAEDVGVYYCGQGTQVPYTFGQGTKLEIKRTVAAPSVFIFPPSDEQLKSGTASVVCLLNNFYPREAKVQWKVDNALQSGNSQESVTEQDSKDSTYSLSSTLTLSKADYEKHKVYACEVTHQGLSSPVTKSFNRGEC	4460
GLS3000 N28E (Kabat) L chain altered form, one-arm antibody with CE115HA000 (antibody, human IgG1, kappa, L234A L235A, N297A, name in Kabat numbering, one-arm antibody) heavy: QVQLVESGGGVVQPGRSLRLSCAASGFTFSNAWMHWVRQAPGKGLEWVAQIKAKSNNYATYYAESVKGRFTISRDDSKNSLYLQMNSLKTEDTAVYYCRYVHYGAYYGVDAWGQGTTVTVSSASTKGPSVFPLAPSSKSTSGGTAALGCLVKDYFPEPVTVSWNSGALTSGVHTFPAVLQSSGLYSLSSVVTVPSSSLGTQTYICNVNHKPSNTKVDKKVEPKSCDKTHTCPPCPAPEAAGGPSVFLFPPKPKDTLMISRTPEVTCVVVDVSHEDPEVKFNWYVDGVEVHNAKTKPREEQYASTYRVVSVLTVLHQDWLNGKEYKCKVSNKALPAPIEKTISKAKGQPREPQVYTLPPSRCELTKNQVSLSCAVKGFYPSDIAVEWESNGQPENNYKTTPPVLDSDGSFFLVSKLTVDKSRWQQGNVFSCSVMHEALHNHYTQKSLSLSPDYKDDDDK EPKSSDKTHTCPPCPAPELLGGPSVFLFPPKPKDTLMISRTPEVTCVVVDVSHEDPEVKFNWYVDGVEVHNAKTKPREEQYNSTYRVVSVLTVLHQDWLNGKEYKCKVSNKALPAPIEKTISKAKGQPREPQVCTLPPSRDELTKNQVSLWCLVKGFYPSDIAVEWESNGQPENNYKTTPPVLDSDGSFFLYSKLTVDKSRWQQGNVFSCSVMHEALHNRYTQKSLSLSP light: DIVMTQSPLSLPVTPGEPASISCRSSQSLVHSERNTYLHWYQQKPGQAPRLLIYKVSNRFSGVPDRFSGSGSGTDFTLKISRVEAEDVGVYYCGQGTQVPYTFGQGTKLEIKRTVAAPSVFIFPPSDEQLKSGTASVVCLLNNFYPREAKVQWKVDNALQSGNSQESVTEQDSKDSTYSLSSTLTLSKADYEKHKVYACEVTHQGLSSPVTKSFNRGEC	5.47
GLS3000 N28G (Kabat) L chain altered form, one-arm antibody with CE115HA000 (antibody, human IgG1, kappa, L234A L235A, N297A, name in Kabat numbering, one-arm antibody) heavy: QVQLVESGGGVVQPGRSLRLSCAASGFTFSNAWMHWVRQAPGKGLEWVAQIKAKSNNYATYYAESVKGRFTISRDDSKNSLYLQMNSLKTEDTAVYYCRYVHYGAYYGVDAWGQGTTVTVSSASTKGPSVFPLAPSSKSTSGGTAALGCLVKDYFPEPVTVSWNSGALTSGVHTFPAVLQSSGLYSLSSVVTVPSSSLGTQTYICNVNHKPSNTKVDKKVEPKSCDKTHTCPPCPAPEAAGGPSVFLFPPKPKDTLMISRTPEVTCVVVDVSHEDPEVKFNWYVDGVEVHNAKTKPREEQYASTYRVVSVLTVLHQDWLNGKEYKCKVSNKALPAPIEKTISKAKGQPREPQVYTLPPSRCELTKNQVSLSCAVKGFYPSDIAVEWESNGQPENNYKTTPPVLDSDGSFFLVSKLTVDKSRWQQGNVFSCSVMHEALHNHYTQKSLSLSPDYKDDDDK EPKSSDKTHTCPPCPAPELLGGPSVFLFPPKPKDTLMISRTPEVTCVVVDVSHEDPEVKFNWYVDGVEVHNAKTKPREEQYNSTYRVVSVLTVLHQDWLNGKEYKCKVSNKALPAPIEKTISKAKGQPREPQVCTLPPSRDELTKNQVSLWCLVKGFYPSDIAVEWESNGQPENNYKTTPPVLDSDGSFFLYSKLTVDKSRWQQGNVFSCSVMHEALHNRYTQKSLSLSP light: DIVMTQSPLSLPVTPGEPASISCRSSQSLVHSGRNTYLHWYQQKPGQAPRLLIYKVSNRFSGVPDRFSGSGSGTDFTLKISRVEAEDVGVYYCGQGTQVPYTFGQGTKLEIKRTVAAPSVFIFPPSDEQLKSGTASVVCLLNNFYPREAKVQWKVDNALQSGNSQESVTEQDSKDSTYSLSSTLTLSKADYEKHKVYACEVTHQGLSSPVTKSFNRGEC	2.41
GLS3000 N28F (Kabat) L chain altered form, one-arm antibody with CE115HA000 (antibody, human IgG1, kappa, L234A L235A, N297A, name in Kabat numbering, one-arm antibody) heavy: QVQLVESGGGVVQPGRSLRLSCAASGFTFSNAWMHWVRQAPGKGLEWVAQIKAKSNNYATYYAESVKGRFTISRDDSKNSLYLQMNSLKTEDTAVYYCRYVHYGAYYGVDAWGQGTTVTVSSASTKGPSVFPLAPSSKSTSGGTAALGCLVKDYFPEPVTVSWNSGALTSGVHTFPAVLQSSGLYSLSSVVTVPSSSLGTQTYICNVNHKPSNTKVDKKVEPKSCDKTHTCPPCPAPEAAGGPSVFLFPPKPKDTLMISRTPEVTCVVVDVSHEDPEVKFNWYVDGVEVHNAKTKPREEQYASTYRVVSVLTVLHQDWLNGKEYKCKVSNKALPAPIEKTISKAKGQPREPQVYTLPPSRCELTKNQVSLSCAVKGFYPSDIAVEWESNGQPENNYKTTPPVLDSDGSFFLVSKLTVDKSRWQQGNVFSCSVMHEALHNHYTQKSLSLSPDYKDDDDK EPKSSDKTHTCPPCPAPELLGGPSVFLFPPKPKDTLMISRTPEVTCVVVDVSHEDPEVKFNWYVDGVEVHNAKTKPREEQYNSTYRVVSVLTVLHQDWLNGKEYKCKVSNKALPAPIEKTISKAKGQPREPQVCTLPPSRDELTKNQVSLWCLVKGFYPSDIAVEWESNGQPENNYKTTPPVLDSDGSFFLYSKLTVDKSRWQQGNVFSCSVMHEALHNRYTQKSLSLSP light: DIVMTQSPLSLPVTPGEPASISCRSSQSLVHSFRNTYLHWYQQKPGQAPRLLIYKVSNRFSGVPDRFSGSGSGTDFTLKISRVEAEDVGVYYCGQGTQVPYTFGQGTKLEIKRTVAAPSVFIFPPSDEQLKSGTASVVCLLNNFYPREAKVQWKVDNALQSGNSQESVTEQDSKDSTYSLSSTLTLSKADYEKHKVYACEVTHQGLSSPVTKSFNRGEC	2.59

The remaining lines, values ahead:

KD ratio to GLS3000 (Affinity up)	Binder
2.81	GLS3000 N28I (Kabat) L chain altered form, one-arm antibody with CE115HA000 (antibody, human IgG1, kappa, L234A L235A, N297A, name in Kabat numbering, one-arm antibody) heavy: QVQLVESGGGVVQPGRSLRLSCAASGFTFSNAWMHWVRQAPGKGLEWVAQIKAKSNNYATYYAESVKGRFTISRDDSKNSLYLQMNSLKTEDTAVYYCRYVHYGAYYGVDAWGQGTTVTVSSASTKGPSVFPLAPSSKSTSGGTAALGCLVKDYFPEPVTVSWNSGALTSGVHTFPAVLQSSGLYSLSSVVTVPSSSLGTQTYICNVNHKPSNTKVDKKVEPKSCDKTHTCPPCPAPEAAGGPSVFLFPPKPKDTLMISRTPEVTCVVVDVSHEDPEVKFNWYVDGVEVHNAKTKPREEQYASTYRVVSVLTVLHQDWLNGKEYKCKVSNKALPAPIEKTISKAKGQPREPQVYTLPPSRCELTKNQVSLSCAVKGFYPSDIAVEWESNGQPENNYKTTPPVLDSDGSFFLVSKLTVDKSRWQQGNVFSCSVMHEALHNHYTQKSLSLSPDYKDDDDK EPKSSDKTHTCPPCPAPELLGGPSVFLFPPKPKDTLMISRTPEVTCVVVDVSHEDPEVKFNWYVDGVEVHNAKTKPREEQYNSTYRVVSVLTVLHQDWLNGKEYKCKVSNKALPAPIEKTISKAKGQPREPQVCTLPPSRDELTKNQVSLWCLVKGFYPSDIAVEWESNGQPENNYKTTPPVLDSDGSFFLYSKLTVDKSRWQQGNVFSCSVMHEALHNRYTQKSLSLSP light: DIVMTQSPLSLPVTPGEPASISCRSSQSLVHSIRNTYLHWYQQKPGQAPRLLIYKVSNRFSGVPDRFSGSGSGTDFTLKISRVEAEDVGVYYCGQGTQVPYTFGQGTKLEIKRTVAAPSVFIFPPSDEQLKSGTASVVCLLNNFYPREAKVQWKVDNALQSGNSQESVTEQDSKDSTYSLSSTLTLSKADYEKHKVYACEVTHQGLSSPVTKSFNRGEC
3	GLS3000 N28H (Kabat) L chain altered form, one-arm antibody with CE115HA000 (antibody, human IgG1, kappa, L234A L235A, N297A, name in Kabat numbering, one-arm antibody) heavy: QVQLVESGGGVVQPGRSLRLSCAASGFTFSNAWMHWVRQAPGKGLEWVAQIKAKSNNYATYYAESVKGRFTISRDDSKNSLYLQMNSLKTEDTAVYYCRYVHYGAYYGVDAWGQGTTVTVSSASTKGPSVFPLAPSSKSTSGGTAALGCLVKDYFPEPVTVSWNSGALTSGVHTFPAVLQSSGLYSLSSVVTVPSSSLGTQTYICNVNHKPSNTKVDKKVEPKSCDKTHTCPPCPAPEAAGGPSVFLFPPKPKDTLMISRTPEVTCVVVDVSHEDPEVKFNWYVDGVEVHNAKTKPREEQYASTYRVVSVLTVLHQDWLNGKEYKCKVSNKALPAPIEKTISKAKGQPREPQVYTLPPSRCELTKNQVSLSCAVKGFYPSDIAVEWESNGQPENNYKTTPPVLDSDGSFFLVSKLTVDKSRWQQGNVFSCSVMHEALHNHYTQKSLSLSPDYKDDDDK EPKSSDKTHTCPPCPAPELLGGPSVFLFPPKPKDTLMISRTPEVTCVVVDVSHEDPEVKFNWYVDGVEVHNAKTKPREEQYNSTYRVVSVLTVLHQDWLNGKEYKCKVSNKALPAPIEKTISKAKGQPREPQVCTLPPSRDELTKNQVSLWCLVKGFYPSDIAVEWESNGQPENNYKTTPPVLDSDGSFFLYSKLTVDKSRWQQGNVFSCSVMHEALHNRYTQKSLSLSP light: DIVMTQSPLSLPVTPGEPASISCRSSQSLVHSHRNTYLHWYQQKPGQAPRLLIYKVSNRFSGVPDRFSGSGSGTDFTLKISRVEAEDVGVYYCGQGTQVPYTFGQGTKLEIKRTVAAPSVFIFPPSDEQLKSGTASVVCLLNNFYPREAKVQWKVDNALQSGNSQESVTEQDSKDSTYSLSSTLTLSKADYEKHKVYACEVTHQGLSSPVTKSFNRGEC
